Measured values as given in PMC9100220, “Fluorescence Lifetime Phasor Analysis of the Decamer–Dimer Equilibrium of Human Peroxiredoxin 1” (International Journal of Molecular Sciences, 2022).

Columns and labels:
[1] = molecular target: the molecule itself; assay: SEC; Superdex 200 5/150 GL, PBS pH 7.4 with 1 mM DTT, room temperature; low hPrx1 concentrations (e.g. 0.5 uM): peak at 5.2 min
[2] = molecular target: the molecule itself; assay: SEC; Superdex 200 5/150 GL, PBS pH 7.4 with 1 mM DTT, room temperature; high hPrx1 concentrations (e.g. 20 uM): peak at 3.9 min

B1: human peroxiredoxin 1 (enzyme, UniProt Q06830 1-199, looked up)
chain: MSSGNAKIGHPAPNFKATAVMPDGQFKDISLSDYKGKYVVFFFYPLDFTFVCPTEIIAFSDRAEEFKKLNCQVIGASVDSHFCHLAWVNTPKKQGGLGPMNIPLVSDPKRTIAQDYGVLKADEGISFRGLFIIDDKGILRQITVNDLPVGRSVDETLRLVQAFQFTDKHGEVCPAGWKPGSDTIKPDVQKSKEYFSKQK
notes: human peroxiredoxin 1 (hPrx1), recombinant; The protein is an obligate homodimer; five dimers form a ring-shaped decamer; It was used in the reduced state, with 1 mM DTT in all measurements; also called hPrx1; human Prx1; source: E. coli BL21(DE3), purified from bacterial lysates; reduced with 10 mM DTT before all experiments
stoichiometry N [1]: 2
stoichiometry N [2]: 10
